{"source": "patent EP4711453A1", "about": "“PHENYLALANINE LYASE MUTANT, AND CONJUGATE THEREOF OR PHARMACEUTICALLY ACCEPTABLE SALT THEREOF” (Peg-Bio Biopharm Co., Ltd. (Chongqing), priority 2023, dated 2024)", "molecules": {"B1": {"name": "PL54-5: polyethylene glycol conjugate of PAL4 (SEQ ID NO: 6) with PEG-SPA-5K, molar ratio 1:16, average degree of modification 13.60 (conjugate)", "chain": "MKTLSQAQSKTSSQQFSFTGNSSANVIIGNQKLTINDVARVARNGTLVSLTNNTDILQGIQASCDYINNAVKSGEPIYGVTSGFGGMANVAISREQASELQTNLVWFLKTGAGNKLPLADVRAAMLLRANSHMRGASGIRLELIKRMEIFLNAGVTPYVYEFGSIGASGDLVPLSYITGSLIGLDPSFKVDFNGKEMDAPTALRQLNLSPLTLLPKEGLAMMNGTSVMTGIAANCVYDTKILTAIAMGVHALDIQALNGTNQSFHPFIHNSKPHPGQLWAADQMISLLANSQLVRDELDGKHDYRDHELIQDRYSLRCLPQYLGPIVDGISQIAKQIEIEINSVTDNPLIDVDNQASYHGGNFLGQYVGMGMDHLRYYIGLLAKHLDVQIALLASPEFSNGLPPSLLGNRERKVNMGLKGLQICGNSIMPLLTFYGNSIADRFPTHAEQFNQNINSQGYTSATLARKSVDIFQNYVAIALMFGVQAVDLRTYKKTGHYDARASLSPATERLYSAVRHVVGQKPTSDRPYIWNDNEQGLDEHIAKISADIAAGGVIVQAVQDILPSLH", "modifications": "PEG-SPA-5K conjugate, ~13.6 PEG per molecule"}}, "key": {"[1]": {"assay": "Specific enzyme activity of phenylalanine lyase (trans-cinnamic acid formation, absorbance at 290 nm)", "format": "biochemical", "procedure": "Phenylalanine lyase specifically catalyzes the conversion of phenylalanine into trans-cinnamic acid with the release of ammonia. […] Enzyme activity is defined as the amount of enzyme required to produce 1 µmol of trans-cinnamic acid per minute in buffer (100 mmol/L Tris-HCl, pH 8.5) at room temperature (25°C) as one unit of enzyme activity.\nThe specific enzyme activity of phenylalanine lyase and its mutants (i.e., PAL, PAL2, PAL3, and PAL4 proteins) prepared in Example 1 was evaluated by taking an appropriate amount of test sample and diluting it to 0.4 mg/ml using assay buffer (100 mmol/L Tris-HCl, pH 8.0). 2.9 ml of substrate solution (100 mmol/L Tris-HCl, 45 mmol/L Phe, pH 8.0) was placed in a cuvette, followed by addition of 0.1 ml of diluted test solution and immediate mixing. The changes in absorbance per minute were recorded at a wavelength of 290 nm, and the specific enzyme activity was calculated according to the formula. Enzyme activity (U/mg) = (AS−AO)VN × 10^6 /εLTV1 [formula]\nWhere AS and AO represent the absorbance of trans-cinnamic acid at the […] of the reaction, respectively; V is the total volume (L) of the reaction system; L is the optical path length of the cuvette (cm); ε is the molar extinction coefficient of trans-cinnamic acid (10238.1 L/(mol·cm)); T is the reaction time (min); N is the dilution factor of the test sample; V1 is the volume of test sample (ml).\nThe enzyme activity retention rate was calculated by comparing the specific enzyme activity of phenylalanine lyase mutants with the specific enzyme activity of the phenylalanine lyase. Table 2: Specific enzyme activity of phenylalanine lyase mutants\nThe specific enzyme activity of the polyethylene glycol conjugates of phenylalanine lyase and its mutants prepared in Step 1 of Example 2 was determined according to the method described in Step 1 of this example. The enzyme activity retention rate was calculated by comparing the specific enzyme activity of each conjugate with its specific enzyme activity prior to PEG modification (e.g., the enzyme activity retention rate of PL5-1 = specific enzyme activity of PL5-1 / specific enzyme activity of PAL protein). Table 3: Specific enzyme activity of PEGylated phenylalanine lyase mutants"}, "[2]": {"set-up": "species or system Pah^enu mice", "conditions": "mouse, in vivo", "procedure": "(§1) To evaluate the polyethylene glycol conjugate PL54 of site-saturation modified phenylalanine lyase mutant, […] Pah^enu mice were allocated into five groups (four experimental groups and one control group), with six mice in each group. PL54-5 (average degree of modification 13.60, specific enzyme activity 1.27 U/mg) from Table 3 of Example 2 was administered to phenylketonuria animal model mice at low, medium, and high doses of 0.5 mg/kg, 1.5 mg/kg, and 4.5 mg/kg, respectively, via subcutaneous injection. The high-dose group of 4.5 mg/kg also included a group receiving intramuscular administration, once per week. The control group was administered phosphate buffered saline as a placebo subcutaneously once weekly. Blood samples were collected from mice in each group at 1 h before administration and at 2, 5, and 7 days after administration for each group. The content of PL54-5 in serum, changes in phenylalanine concentration (Reference: Judy Peat et al., Determination of Phenylalanine and Tyrosine by High Performance Liquid Chromatography-Tandem Mass Spectrometry), and Anti-PEG-IgM/IgG antibody titers (see Example 5 for details) were detected by sandwich ELISA (see Example 5 for details), and their pharmacokinetics were evaluated, see FIG. 6 to FIG.9 for details."}, "anti-PEG antibodies": {"system": "anti-PEG antibodies", "set-up": "species or system Pah^enu mice", "conditions": "mouse, in vivo", "procedure": "as §1"}, "anti-PAL-IgG": {"system": "anti-PAL-IgG", "assay": "Immunogenicity of conjugates with different PEG molecular weights in rats: anti-PAL-IgG (ELISA)", "format": "in vivo", "conditions": "for anti-PAL-IgG, x (average OD value of antibody detection by ELISA) / anti-PAL-IgG, Positive rate: 0.75 mg/kg s.c. once weekly", "procedure": "Polyethylene glycol conjugates of phenylalanine lyase or its mutant with different structures and modifier molecular weights, namely PL20, PL24, and PL54, were prepared according to the method described in Example 2. The phenylalanine lyase in PL20 has the amino acid sequence as set forth in SEQ ID NO: 1, and the polyethylene glycol has a molecular weight of 20K. The phenylalanine lyase in PL24 has the amino acid sequence as set forth in SEQ ID NO: 6, and the polyethylene glycol has a molecular weight of 2K. The phenylalanine lyase in PL54 has the amino acid sequence as set forth in SEQ ID NO: 6, and the polyethylene glycol has a molecular weight of 5K.\nTo evaluate the immunogenicity of PL20, PL24, and PL54 in animals, normal rats were selected and divided into 3 groups, with 6 rats per group (3 males and 3 females). Subcutaneous administration was performed at a dose of 0.75 mg/kg with PL54 (average degree of modification 13.6, 1.27 U/mg), PL24 (average degree of modification 13.3, 0.96 U/mg), and PL20 (average degree of modification 7.6, 1.14 U/mg) for the three groups, respectively. Administration was repeated 7 times, once weekly. Blood samples were collected 7 days after each administration. Serum anti-PEG-IgG and anti-PAL4 protein antibodies were detected by ELISA (refer to Example 5 for details). In the table, \"1-7\" indicated 7 days after the first administration, and \"7-7\" indicated 7 days after the seventh administration. x represented the average OD value of antibody detection by ELISA, and the positive rate represented the ratio of the number of antibody-positive animals to the total number of animals in the group. Table 6: Antibody titers in rats after multiple administrations of polyethylene glycol conjugates with different molecular weights"}}, "data": [{"molecule": "B1", "values": [{"measurement": "Enzyme activity retention rate", "setting": "[1]; conjugate compared with its protein prior to PEG modification", "result": 83, "unit": "%"}, {"measurement": "Specific enzyme activity", "setting": "[1]; polyethylene glycol conjugates, method as for the proteins", "result": 1.27, "unit": "U/mg"}, {"measurement": "plasma drug concentration in relation to the administration dose", "setting": "[2]", "result": "directly proportional to the administration dose"}, {"measurement": "plasma drug concentration, intramuscular compared with subcutaneous", "setting": "[2]; 4.5 mg/kg", "result": "higher than that in the subcutaneous administration group"}, {"measurement": "S/N values of IgG and IgM antibodies (anti-PEG)", "setting": "anti-PEG antibodies", "result": "decreased with increasing number of administrations"}, {"measurement": "anti-PEG antibodies", "setting": "anti-PEG antibodies", "result": "positive"}, {"measurement": "anti-PAL-IgG, x (average OD value of antibody detection by ELISA)", "setting": "anti-PAL-IgG; 1-7 (7 days after the first administration)", "result": "x=0.107"}, {"measurement": "anti-PAL-IgG, Positive rate", "setting": "anti-PAL-IgG; 1-7, antibody-positive animals / animals in the group", "result": "Positive rate: 2/6"}, {"measurement": "anti-PAL-IgG, x (average OD value of antibody detection by ELISA)", "setting": "anti-PAL-IgG; 7-7 (7 days after the seventh administration)", "result": "x=0.089"}, {"measurement": "anti-PAL-IgG, Positive rate", "setting": "anti-PAL-IgG; 7-7, antibody-positive animals / animals in the group", "result": "Positive rate: 0/6"}, {"measurement": "anti-PAL4 protein antibody", "setting": "anti-PAL-IgG; 7 days after seven doses", "result": "No anti-PAL4 protein antibody was detected"}]}]}
